Experimental findings from the DeepSol protein solubility set are described below.

This series in a line: soluble on expression in E. coli; label from the status in PepcDB or PDB records.
Regarding “GMHSALQLRSRIKSSGELELSLDSIDTPHPGPDEVLIRIEASPLNPSDLGLLFGAADMSTAKASGTAERPIVTARVPEGAMRSMAGRLDASMPVGNEGAGVVVEAGSSPAAQALMGKTVAAIGGAMYSQYRCIPADQCLVLPEGATPADGASSFVNPLTALGMVETMRLEGHSALVHTAAASNLGQMLNQICLKDGIKLVNIVRKQEQADLLKAQGAVHVCNAASPTFMQDLTEALVSTGATIAFDATGGGKLGGQILTCMEAALNKSAREYSRYGSTTHKQVYLYGGLDTSPTEFNRNFGMAWGMGGWLLFPFLQKIGRERANALKQRVVAELKTTFASHYSKEISLAEVLDLDMIAVYNKRATGEKYLINPNKGLAG”, the “soluble on expression in E. coli” value was “soluble”. Turning to “MGSDKIHHHHHHMSPRLGDSAEMFVPQEQSGLNEAAPAAPRRPYRLSRRPEERVHVLGGTMDLVRPEEVFHFVTGKLEARQNAIVANHNLHSLYLIGKDHQIGQFYKAADLIEVDSVPLIFWARLVGRASRRFHRCTYLDWRDAFWALASEKNWKVFFVGGAPGVGEKAVERIRQDWPNARIETHHGYFDATQGSAENTAVVAKIRDYAPDIVLVGMGMPRQEIWTLENHQAYGPAATFTVGGAFDYEAGVQKAAPRWMGPLGMEWLFRLMSDPQRLFFRYCIEPWSLIGPACGDVVRALSRRSTTGESRAAENARWEQIRARNEAAR”, the “soluble on expression in E. coli” value is recorded as “not soluble”. Then “MSQSDEASVAEPTVVVATPVAVAVTAPATHPRKPPALVISTIACPTIYEQAPSKPASPTMPLSPYEGITADLMQRIQLFSSQFDHARLSPNYATSDLGSSARSSFSSTTSSFLTYRDRSVDFDEAGKELISPFDCDTNCSGTPYSLSTNSGNHFSFEARSVSSLGHSTAHFNQLLAAGAAYELSRERSRSESDMQPTQEDDVRHLNTSTISVPIYAKKPLHKFGGEIKRSSSTPPPTSDEREQVEQRLLLRPSSGMEIKKDLETTNSFVSSWAREQIFAMQNATMYNLLTARSAEDCSTISTPGPLKVFPRSKDDMTFAPRDDSSRAKQMQYPCTLCGQAFAVHDRLAKHIASRHRQRSCTLDDASKVHKCNMCSKSFSRSDMLTRHMRLHTGAKPYSCPTCNQVFSRSDHLSTHLRTHTGEKPYACPMCNYSASRRDMISRHMRTHSLTDDSSISTPISQLSIRSATTSPLPPKIGSTATVEIGSGLLSAFKPILSASSSNLLSVSSPFQSLSLSTPPSPSFAPIVLNRQLSFDVTMRNTTS”, with “soluble”. As for “MTQHSRDTPQFYLTAPSPCPYLPGRHERKVFTHLVGNKAGELNDLLTHGGFRRSQSIAYRPACDQCRACVSVRVIANEFKPSRNQRKLLARNADIVGEQRNPVPTSEQYSVFRAYLDQRHRYGGMADMTVLDYAMMVEDSHVQTRMIEYRKRTPDTGITGRGGELIAAALTDVLGDGLSMVYSFYEPNEQHRSLGTFMILDHIARARRLGLPYVYLGYWIEGSKKMDYKGRYLPQQRLAPSGWLRIDASGEMQPEPQDLEHHHHHH”, the “soluble on expression in E. coli” value was “not soluble”. On to “MAHHHHHHMPCRKIIIDTDCGGDDAIGIMTALADPNTDVIAMTAVWGNVNVNQGMENIGKLLDVFERDIPFYKGAEAPLVSDPETVQWGGFGKDGFGDADFPPSARVLVQSKTHAALAITELLRAAKPDEDAVYQLVCLGPLTNIALAMRLDPEVFHVLGSETEPAITIMGGASEAKGNSNLTSEFNMHCDPEAAYIVFNQRSMRPVRVVSWEVTVDCSMTWTFFDKWIGRQENGKKQQNRFQVFIEKVFQRLETFTRPLPDGTKANTGDAEATQDNTCVIPDAVAVVAALYPESILDRFITYCTVELHGRETRGQTCLDWYGTKQSMAKRGRWCNCELITRVDNARFLEAMNGILEYNV”, for which the “soluble on expression in E. coli” value is on record as “not soluble”. “AIAVIVSRCGTGGSVTEHANEVVMKLEALQRPGGLPLSILLVLAGLTKRGASDLRHPIAEDRQSLSCATVQPSLQDV”: the “soluble on expression in E. coli” value is listed as “soluble”. Regarding “GSHMPSRRMLHTMIRVGDLDRSIKFYTERLGMKVLRKWDVPEDKYTLVFLGYGPEMSSTVLELTYNYGVTSYKHDEAYGHIAIGVEDVKELVADMRKHDVPIDYEDESGFMAFVVDPDGYYIELLNEKTMMEKAEADMKEQGTA”, the “soluble on expression in E. coli” value was “soluble”. To “DLKQREQALEDSRQRYQTLLQAAPDPIFVADAETGEIVEANAAAEELRGQPRDDIIGRHQTELHPEEAGGLYEDVFEQAFDDASTITELPDGTQPELATPDGETVPIEISAAAVSLPDGPVLFGVFRDVS” belongs “not soluble”; to “MIYEGKAITVTALESGIVELKFDLKGESVNKFNRLTLNELRQAVDAIKADASVKGVIVSSGKDVFIVGADITEFVENFKLPDAELIAGNLEANKIFSDFEDLNVPTVAAINGIALGGGLEMCLAADFRVMADSAKIGLPEVKLGIYPGFGGTVRLPRLIGVDNAVEWIASGKENRAEDALKVSAVDAVVTADKLGAAALDLIKRAISGELDYKAKRQPKLEKLKLNAIEQMMAFETAKGFVAGQAGPNYPAPVEAIKTIQKAANFGRDKALEVEAAGFAKLAKTSASNCLIGLFLNDQELKKKAKVYDKIAKDVKQAAVLGAGIMGGGIAYQSASKGTPILMKDINEHGIEQGLAEAAKLLVGRVDKGRMTPAKMAEVLNGIRPTLSYGDFGNVDLVVEAVVENPKVKQAVLAEVENHVREDAILASNTSTISISLLAKALKRPENFVGMHFFNPVHMMPLVEVIRGEKSSDLAVATTVAYAKKMGKNPIVVNDCPGFLVNRVLFPYFGGFAKLVSAGVDFVRIDKVMEKFGWPMGPAYLMDVVGIDTGHHGRDVMAEGFPDRMKDDRRSAIDALYEAKRLGQKNGKGFYAYEADKKGKQKKLVDSSVLEVLKPIVYEQRDVTDEDIINWMMIPLCLETVRCLEDGIVETAAEADMGLVYGIGFPLFRGGALRYIDSIGVAEFVALADQYAELGALYHPTAKLREMAKNGQSFFG”, “soluble”. As for “GMAEEKKKKLSIIVFSGTIDKLMPVGILTSGAAASGYEVNLFFTFWGLQAITKRSLNSQQPPQIDKNYEQMGPIMMQKMQEMKYPMWHQLVQQAKEIGEVKVFACSTTMEFFGIKREDLAEFVDDVVGVATFLDRAEGGTTLFI”, the “soluble on expression in E. coli” value is on record as “soluble”.

Regarding “MGSDKIHHHHHHMDQGDDGDGQTANADYSIRIAAGIGAFTCDEWNGFAGTTRSDAENGYNPLVSFAFLSALEDSGCAVRRTGWQGHHVRLETAQGRLLGAVPCYLKSHSQGEYVFDHGWSDAFERAGGRYYPKLQCAVPFTPVTGPRLLVNRGEDPDAVKAGLAAGLKMVTDKLGVSSAHVTFAQESDVATLEAAGFLHRTDQQFHFFNEGFSTYDDFLATLASRKRKAMKKERREALADGITIDWLTGKDLTEKAWDDFFAFYMDTGSRKWGRPYLNRQFFSLIGERMADDILLVMARRNGRYVAGAINFIGSDALYGRNWGCIEDHPFLHFEVCYHQAIDFAIERKLKVVEAGAQGEHKLARGYRPVTMHSAHYISHPGLRNAVADYLQRERREVERMGEYLEEHTPFRKDLEE”, the “soluble on expression in E. coli” value is “not soluble”.

For “MNISLSRVHFPVTTLGPGQRLGLWFQGCSIRCAGCISADTWGPGKHPLPLAQVLDDLQPWLARAEGITLSGGEPFDQPEALLALLRGLRERTGVDILVYSGHSLETLQPLLQQAEGLLDALICDPFEQQQAQTLVLRGSDNQRLIFLTELGRQRLSTYQRPLHHEDRALDVMFDDDGSVWMAGIPRRDDVLRLRDLLHDQGHQLQISAHTSRRRLEHHHHHH”, the “soluble on expression in E. coli” value was “not soluble”. For the sequence “MMIVGCYCMNKLVFCLMGPTASGKTGLACELLTHFPFEIISVDSAMIYRDMNIGTAKPSIHELQRAPHYLIDIKDPVESYSAAQFCTDALSLCAEIIKRGNIPLLVGGTMMYFNALQKGLATLPEADEAVRKRLEEEALSQGWDFLYQKLSQLDPVTAARIHAHDTQRIQRALEVYYLTGSTLSTYLTGPHERPDYYFVNLALFPEQRSWLHERIAQRFDAMLSEGFIEEVQQLQAKWPIQINLPSMRCVGYRQILQHLAGHYDYETMREKGIAATRQLAKRQLTWLRHWEGALFYDSQNVGFNTDIIAKIREILDNTVSNLEHHHHHH”, the “soluble on expression in E. coli” value is reported as “not soluble”.

Consider “MSLDNFIAGLPKLELHLHIEGSLEPELMFALGQRNGVALPWPDVASVRAAYEFDCLQSFLDLYYLGASVLITEQDFFDLTWAYLERCAADKVVHVEIFFDPQTHTARGVPFATVLGGIERALQRGEWEFGISWRLIMSFLRHLSEEDAFATLAEATPFLSRIHGIGLDSGEKGNPPSKFARVFARCRELGLPVVAHAGEEGPADYIWQAIRELEVRRIDHGVRCVDDPDLLRYLADTRLPLTVCPLSNTRLKVFDQMAHHNVLALLEQGLCVTINSDDPAYFGGYMNANFHALAHELGASMNQLCRLSLNAVEASWLSLADKARLTREGHHHHHH”, for which the “soluble on expression in E. coli” value was “soluble”.

As to “MAHHHHHHMLRRVLSRGPLPQSLSVGPTSKLTVNKGKLAKSRGVHVHFLTIAECAAAAGDASAPIPPGFTGKAGEVDFQTLWTTAQDPATAESVLRKSGRKAAGARRAAEKPAELVAGMGAHSTVRDYRLAVTAAVRKAKMCNAAWVSLHPPKQDVFTMTDPYHPPQRLKSHEMVEKTAIFAVTGAYQYDRLKSGTLASKDSAQTGRTRARRAESRAKPPAAPQPPMELVVASSNAQAVRAGEVIGHCVNEARNLGNLREDEGVPEFYAEWAKKYMIPEGIKVRKVLRGQQLEEAGLHLMYNVGRGSRYEPYLVVLEYIGNPRSSATTAIVGKGVTFDCGGLNIKPYTSMETMHSDMMGAATAFCTLKAIAKLQLPINVVAAVGLVENAIGPESYHPSSIITSLKGLTVEVLNTDAEGRLVLADVLTYVQKYAPLDKKPTRIIDLATLTGAIIVGLGSRRAGLFSPSAMLANSLMAAGTQCGEELWPMPIGDEHKDMMKGGIADLINAAPGRQAGSCTAAAFLSNFVEPEVQWAHLDIAGVADVGDKPKGYEPAGVTGFGVQLLVDFLRHNKP”, the “soluble on expression in E. coli” value is “not soluble”. For the sequence “MGSDKIHHHHHHMTWQVERIANEHLTLEVLPQIGASVLNLRAASGRPVLRPVNPAAVQTSSQCASFTLLPYSNRIRDARFSFQGREVLLRPTTKDGLAQHGDVRNRPWQVTRVADTHLRGDFDSRAFNDMNWPWAFTARVEYLLHGPHLDTSVTLTNVDTDEMPAGMGLHPYFTRRHGGRDPFLSFGAALTYDTDERQLPTGGPRTLHPEEDYQMPSSIGDRQLDRVYTAWDGRARLDWGERALTLTADAVYSHLVVFTAPDGSLALEPVTHATDAFNLAARGVSGTDMRTLLPGQSLAGTVRITLEGAW”, the “soluble on expression in E. coli” value is listed as “not soluble”. Take “MSLKEISVVLVGIGGYGNKYVEYILREGREKGVRISGVVDPYPQNSRFYDELRSLNVPMYNTLEEFYSHHTADLAIISSPIHYHCEQTCTAVRNGSHVLCEKPAAATVKEVKKMIECREKYGKIVAIGYQWSYNPAVLKLKEDILAGKFGKPVLFKTLVLWPRDTAYYRRNSWAGKLKVNNRWVLDSVAGNATAHFLHNMLFLLGEKMEESAYPESMVAELYRANDIESFDTCALKMTVRKIPVLFFATHAVKERKGPVFEYRFEKARVICNYPEYPESEENLLVVYEDGRKEIYGPTDHGSMRKLWVVVDAARGRKEFICTLESAMAHTIAINGAHVSMKEIQDFPTELKRVEGEPPMIWVEGLKEAMERAYEEEKIFSELNLPWAKRGEEVKLENFEGLEGEITEGHHHHHH”: the “soluble on expression in E. coli” value is given as “soluble”. As for “MSLKSIILEDANAKLREDAHTFVFDGHAGVKGRVDFARLGSNNPIEDDWDLKIAKGVGGTKTLYAGVYDGHAGWATSQVLRNALVPYVSGALSSLTPTTSTELVDDAIQKAFVRLDNRIFDTALKAVESGLDQGTASVISAVAPAIAGSCALLTMYEPVTSTLRTAVAGDSRAVRGAWSSNANKYETDILSIDQTGFNQLEVERLDKEHPGQLHSMLNLDSGRLFGLAVTRAFGDHRLKWPAKVIRKVQDDYYGTPPRPNYTTPPYLTARPEVTTRKIQTEDFVILGSDGLWDMISNEDAVTCISRWLSAKKSGKPEPFKETKFEGKLEDGWQATPEHHVIEDLDNAAVCLVKNAFGGSRRGLFLGAMTTYAPMSRNVRDDITVQIIFFKDPYEKEGHHHHHH”, the “soluble on expression in E. coli” value is listed as “soluble”.
